# Publication PMC6879612 (Nature Communications, 2019)
# B1: P1C1 (parental clone), human IgG1 (antibody, V domains shown)
# VH: QLQLQESGPGLVKPSQTLSLTCAVSGGSISSGGYYWSWIRQRPGKGLEWIGYIYYSGSTYYNPSLKSRLTISVDTSKNQFSLKLSSVTAADTAVYYCARENFGAFDHWGQGTLVTVSS
# VL: QAVLTQPSSVSGAPGQRVTISCTGSSSNIGADYETHWYQHLPGTAPKLLIYGNTNRPSGVPHRFSGSKSGTSASLAITGLQAEDEADYYCQSYDSNLSAWVFGGGTKLTIL
# notes: heavy framework 1 of the parental clone; heavy CDR1 (Kabat); heavy framework 2, CDR2, framework 3; heavy CDR3 (Kabat); heavy framework 4; light framework 1 of the parental clone; light CDR1 (Kabat); light framework 2, CDR2, framework 3; light CDR3 (Kabat); light framework 4; Human IgG1; From a naive human Fab phage library (Humanyx); also called parental P1C1 antibody; source: HEK293-6E, pTT5 …
# Target: T1, p53_(125–134)/HLA-A24 pMHC, soluble recombinant (Homo sapiens, HLA-A*24:02, biotin where the biotinylated pMHC was used (site not stated))
# T1 construct: HLA-A24 heavy chain (α-chain), recombinant; β2-microglobulin, recombinant; source: biotinylated or non-biotinylated; copies: + +
# Experiment: ELISA; biotinylated pMHC captured on NeutrAvidin-coated wells; IgG1 in solution, detected with HRP anti-human IgG Fcγ
# Conditions: both partners purified
binder,measurement,value
B1,binding result,binds
